Laboratory results published in publication PMC2688079.

Target: Aqy1 from Pichia pastoris (Pichia pastoris)
Test: crystal structure; hanging drop vapour diffusion at 4°C, protein at 9 mg/ml in beta-octylglucopyranoside; Crystal1: 28% PEG400, 100 mM Na-citrate pH 3.5, 200 mM Li2SO4 (1.15 Å); Crystal2: 33% PEG400, 100 mM Tris pH 8.0, 100 mM NaCl, 100 mM CdCl2 (1.40 Å); both space group I4, identical structures

- stoichiometry N: 4
Substance: Aqy1 from Pichia pastoris (natural protein)
